{"source": "paper PMC3606643", "binders": {"B1": {"name": "DR1 (5'-fluorescein top strand) (dsDNA)", "DNA 1": "GGAACTAGGTCAAAGGTCAG", "DNA 2": "CCTGACCTTTGACCTAGTTC"}}, "key": {"[1]": {"biological_target": "T1, HNF4α ΔABΔF (DBD-hinge-LBD) (human, UniProt P41235-2 55-377)", "T1 sequence": "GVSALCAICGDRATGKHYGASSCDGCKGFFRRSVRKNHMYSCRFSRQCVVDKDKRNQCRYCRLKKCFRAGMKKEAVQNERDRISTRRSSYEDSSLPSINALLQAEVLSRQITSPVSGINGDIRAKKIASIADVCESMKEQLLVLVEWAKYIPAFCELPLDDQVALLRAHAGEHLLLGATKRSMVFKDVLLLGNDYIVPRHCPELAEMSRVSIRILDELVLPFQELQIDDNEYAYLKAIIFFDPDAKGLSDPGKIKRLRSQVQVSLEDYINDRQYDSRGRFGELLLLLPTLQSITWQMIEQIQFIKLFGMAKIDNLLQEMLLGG", "test": "fluorescence anisotropy"}, "HNF4α DBD (DBD-hinge)": {"biological_target": "T2, HNF4α DBD (DBD-hinge) (human, UniProt P41235-2 55-135)", "T2 sequence": "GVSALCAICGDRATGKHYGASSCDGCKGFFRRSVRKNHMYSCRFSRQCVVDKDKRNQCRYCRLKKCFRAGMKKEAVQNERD", "test": "fluorescence anisotropy"}}, "data": [{"binder": "B1", "values": [{"measurement": "Kd", "setting": "[1]", "value": 0.082, "unit": "µM"}, {"measurement": "Kd", "setting": "HNF4α DBD (DBD-hinge)", "value": "~6", "unit": "µM"}]}]}
